Results published in PMC11934133 (2025).

T1: Zika virus SPH2015 nonstructural protein 1 (NS1) (Zika virus (strain SPH2015))
T1 chain: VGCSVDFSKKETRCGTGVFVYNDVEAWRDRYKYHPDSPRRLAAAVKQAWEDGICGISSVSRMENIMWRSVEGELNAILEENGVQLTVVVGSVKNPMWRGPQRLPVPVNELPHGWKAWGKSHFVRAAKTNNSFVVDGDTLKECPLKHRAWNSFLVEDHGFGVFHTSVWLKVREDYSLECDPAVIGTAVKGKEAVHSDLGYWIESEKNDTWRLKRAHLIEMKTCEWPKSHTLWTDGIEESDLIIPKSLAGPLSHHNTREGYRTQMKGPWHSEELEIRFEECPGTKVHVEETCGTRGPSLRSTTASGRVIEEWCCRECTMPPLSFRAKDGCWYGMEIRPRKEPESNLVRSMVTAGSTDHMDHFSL

B1: GST-tagged ZIKV_Nb32 (VHH)
VHH: EVQLVESGGGLVQAGGSLRLSCAVSGIDFSRYAITWNRQSPGNQRREWVATLPPADTTVYADAVKGRFTISRDNTKNTVYLQMNSLKPEDTAVYYCATSPRIHNWGQGTQVTVS
B2: GST-tagged ZIKV_NbD6 (VHH)
VHH: EVQLVESGGGSVQPGGSLRLSCAASGFAFSHYAMRWVRQAPGKGLEWVSVINSDGEDTWYADSVKGRFTISRDNAKNTLYLQMNSLKPEDTGVYYCAIGRTHDTKGQGTQVTVS
B3: ZIKV_NbD6 with C-terminal StrepTag-II (VHH)
VHH: EVQLVESGGGSVQPGGSLRLSCAASGFAFSHYAMRWVRQAPGKGLEWVSVINSDGEDTWYADSVKGRFTISRDNAKNTLYLQMNSLKPEDTGVYYCAIGRTHDTKGQGTQVTVSS
B4: ZIKV_Nb32 with C-terminal StrepTag-II (VHH)
VHH: EVQLVESGGGLVQAGGSLRLSCAVSGIDFSRYAITWNRQSPGNQRREWVATLPPADTTVYADAVKGRFTISRDNTKNTVYLQMNSLKPEDTAVYYCATSPRIHNWGQGTQVTVSS

Experiments:
[1] = target: Zika virus SPH2015 nonstructural protein 1 (NS1) (Zika virus (strain SPH2015)); assay: BLI
[2] = target: T1, Zika virus SPH2015 nonstructural …; assay: BLI; GST-VHH immobilized, NS1 in solution
[3] = target: T1, Zika virus SPH2015 nonstructural …; assay: BLI; NS1 immobilized, GST-VHH in solution
[4] = target: T1, Zika virus SPH2015 nonstructural …; assay: BLI
[5] = target: T1, Zika virus SPH2015 nonstructural …; assay: BLI; NS1 saturated with Nb32-Strep

Binder | Kd [1] | fold increase of koff against the orientation with the nanobody immobilised [1] | koff [2] | koff [3] | fold increase of koff against the GST-tagged nanobody [1] | fold increase of kon against the GST-tagged nanobody [1] | koff [4] | Kd [5]
B1 | 0.035 nM | > 100 fold | < 1e-07 s⁻¹ | 2e-05 s⁻¹ |  |  |  | 
B2 |  |  | < 1e-07 s⁻¹ | 7.6e-05 s⁻¹ |  |  |  | 
B3 | 8 nM |  |  |  | 26 fold | 3.6 fold | 0.002 s⁻¹ | 5.9 nM
B4 | 0.16 nM |  |  |  | 15 fold | 3.2 fold | 0.00029 s⁻¹ | 
